For one substance, percent of the signal in the dimer peak (with 20 mM DPC), percent of the signal in the dimer peak (without DPC) and stoichiometry N results are on record in PMC10836841.

In the assay the target is PhiKo endolysin (Thermus thermophilus HB27 bacteriophage phiKo). The experiment in a line: AUC; sedimentation velocity, 50,000 rpm, 4°C, 20 mM MES, 150 mM NaCl, pH 6.0, in the absence or presence of 20 mM DPC detergent; PhiKo endolysin 1.2 mg/mL; continuous c(s) distribution (SEDFIT); monomer to dimer.

Consider PhiKo endolysin (enzyme), for which the percent of the signal in the dimer peak (with 20 mM DPC) worked out at 15%, the percent of the signal in the dimer peak (without DPC) came out at 2.3% and the stoichiometry N was 2.
